From the supplement of paper PMC10126150
± gives the standard deviation of the averaged measurements.

Each sequence was assayed on ATP (assay: switch fluorescence ratio, 500 uM ATP over buffer (Cy3 cluster intensity, sum of 5 cycles each) (fold (ratio)); higher = stronger signal-on switching upon ATP binding; sequences stand for … in TCGTCGGCAGCGTCAGATGTGTATAAGAGACAGTTTTTTTTTTTTTTTTTTTTTTTTT…TC). Conditions: aptamer strand: ATP DNA aptamer (quencher-CACCTGGGGGAGTATTGCGGAGGAAGG + anchor), 100 nM annealed; ATP concentration: 500 uM.
Procedure, shortened: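 Between each of five buffer/ATP cycles, the flow-cell was stripped with NaOH and re-annealed. Each cycle imaged Cy3-labelled switching-strand clusters, annealed to 100 nM quencher-labelled ATP aptamer on a modified Illumina MiSeq flow-cell, first in selection buffer and then after 15 min with 500 uM ATP at 22 °C. The fluorescence ratio is summed target-cycle over summed buffer-cycle Cy3 intensity per cluster, averaged per switch-domain sequence, with clusters outside 100-1000 RFU excluded.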
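Note: ATP exposure 15 min at 22 °C before imaging.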

| Sequence | switch fluorescence ratio |
| --- | --- |
| GGGGGCATTA | 0.999 ± 0.016 |
| GGGGGCCAGC | 1.01 ± 0.02 |
| GGGGGCCCCA | 1.01 ± 0.022 |
| GGGGGCCCGG | 1.03 ± 0.045 |
| GGGGGCGCCA | 1.02 ± 0.02 |
| GGGGGCGGTT | 1.02 ± 0.026 |
| GGGGGCTGCG | 1.04 ± 0.051 |
| GGGGGGAAGC | 1.04 ± 0.064 |
| GGGGGGAGCT | 1.02 ± 0.057 |
| GGGGGGAGGG | 1 ± 0.052 |
| GGGGGGAGTA | 1.01 ± 0.056 |
| GGGGGGCCGG | 0.996 ± 0.033 |
| GGGGGGCGAG | 0.9864 ± 0.0052 |
| GGGGGGCGGA | 1.01 ± 0.039 |
| GGGGGGCGTC | 1.02 ± 0.016 |
| GGGGGGCTTT | 0.986 ± 0.022 |
| GGGGGGGAGC | 1.01 ± 0.033 |
| GGGGGGGATG | 0.991 ± 0.029 |
| GGGGGGGGAA | 1.01 ± 0.063 |
| GGGGGGGGAT | 1.01 ± 0.029 |
| GGGGGGGGTG | 1.02 ± 0.068 |
| GGGGGGGGTT | 1 ± 0.042 |
| GGGGGGGTGT | 1.01 ± 0.05 |
| GGGGGGTAAT | 1.01 ± 0.026 |
| GGGGGGTACA | 1.01 ± 0.047 |
| GGGGGGTAGC | 0.9761 ± 0.0061 |

| Sequence | switch fluorescence ratio |
| --- | --- |
| GGGGGGTATA | 1 ± 0.048 |
| GGGGGGTCCG | 1.01 ± 0.074 |
| GGGGGGTCCT | 1 ± 0.018 |
| GGGGGGTCGG | 1 ± 0.024 |
| GGGGGGTCTG | 1 ± 0.037 |
| GGGGGGTGAA | 1.02 ± 0.012 |
| GGGGGGTGAC | 1 ± 0.035 |
| GGGGGGTGGA | 1.01 ± 0.028 |
| GGGGGGTGGT | 0.978 ± 0.025 |
| GGGGGGTTCA | 1.01 ± 0.026 |
| GGGGGGTTCG | 0.978 ± 0.021 |
| GGGGGTACTA | 0.96 ± 0.019 |
| GGGGGTCCTC | 1.001 ± 0.01 |
| GGGGGTCGTT | 1.02 ± 0.051 |
| GGGGGTGAAG | 0.971 ± 0.016 |
| GGGGGTGTGT | 1.01 ± 0.035 |
| GGGGGTTCGG | 0.992 ± 0.021 |
| GGGGGTTGTA | 0.978 ± 0.054 |
| GGGGGTTTGT | 0.983 ± 0.011 |
| GGGGTAAGAT | 0.963 ± 0.054 |
| GGGGTACGTG | 1 ± 0.029 |
| GGGGTACTTG | 1.01 ± 0.02 |
| GGGGTAGAGG | 0.977 ± 0.015 |
| GGGGTAGATC | 1.05 ± 0.013 |
| GGGGTAGGCC | 0.995 ± 0.018 |
| GGGGTAGGGG | 1.01 ± 0.026 |

| Sequence | switch fluorescence ratio |
| --- | --- |
| GGGGTAGTGC | 0.998 ± 0.015 |
| GGGGTATACC | 0.956 ± 0.021 |
| GGGGTATAGT | 0.98 ± 0.021 |
| GGGGTATCGG | 0.9828 ± 0.0085 |
| GGGGTATTCT | 1.01 ± 0.013 |
| GGGGTCAGAT | 0.986 ± 0.051 |
| GGGGTCATGT | 1.03 ± 0.015 |
| GGGGTCATTG | 0.988 ± 0.023 |
| GGGGTCGTTG | 0.995 ± 0.017 |
| GGGGTCTAGT | 1.01 ± 0.026 |
| GGGGTCTTCC | 1.07 ± 0.041 |
| GGGGTGAAGG | 1.01 ± 0.025 |
| GGGGTGAAGT | 1.04 ± 0.017 |
| GGGGTGACTG | 1.05 ± 0.048 |
| GGGGTGCAGC | 1.05 ± 0.02 |
| GGGGTGCAGT | 0.992 ± 0.022 |
| GGGGTGCCCA | 0.984 ± 0.044 |
| GGGGTGCCTG | 0.999 ± 0.039 |
| GGGGTGGAGC | 1.05 ± 0.014 |
| GGGGTGGATG | 0.997 ± 0.018 |
| GGGGTGGCAG | 0.975 ± 0.027 |
| GGGGTGGCGA | 1.01 ± 0.045 |
| GGGGTGGGCA | 1 ± 0.011 |
| GGGGTGGGGT | 1 ± 0.052 |
| GGGGTGTAAG | 0.992 ± 0.02 |
| GGGGTGTAGT | 0.9854 ± 0.0053 |

| Sequence | switch fluorescence ratio |
| --- | --- |
| GGGGTGTCTG | 0.9792 ± 0.0074 |
| GGGGTGTGGC | 0.977 ± 0.046 |
| GGGGTGTTAT | 0.955 ± 0.037 |
| GGGGTGTTTT | 0.999 ± 0.048 |
| GGGGTTAACG | 0.996 ± 0.031 |
| GGGGTTAAGA | 1.01 ± 0.08 |
| GGGGTTAATG | 0.998 ± 0.028 |
| GGGGTTAATT | 1 ± 0.026 |
| GGGGTTAGTG | 0.971 ± 0.034 |
| GGGGTTCATG | 0.9675 ± 0.006 |
| GGGGTTCGAA | 0.963 ± 0.016 |
| GGGGTTGATG | 0.965 ± 0.022 |
| GGGGTTGGTG | 0.989 ± 0.02 |
| GGGGTTGTTT | 1.03 ± 0.08 |
| GGGGTTTAAG | 0.969 ± 0.025 |
| GGGGTTTACG | 1 ± 0.039 |
| GGGGTTTAGG | 0.989 ± 0.026 |
| GGGGTTTCAG | 1.02 ± 0.012 |
| GGGGTTTGCA | 0.978 ± 0.046 |
| GGGGTTTTGC | 0.985 ± 0.017 |
| GGGGTTTTTC | 0.9786 ± 0.0085 |
| GGGTAAAACT | 1.0166 ± 0.00025 |
| GGGTAAAGTG | 0.9928 ± 0.0032 |
| GGGTAAATAT | 0.98 ± 0.014 |
| GGGTAAATGG | 1.02 ± 0.034 |
| GGGTAAATGT | 0.9908 ± 0.0024 |

| Sequence | switch fluorescence ratio |
| --- | --- |
| GGGTAAGGAC | 1.03 ± 0.014 |
| GGGTAATAAG | 0.993 ± 0.035 |
| GGGTAATCTT | 0.991 ± 0.028 |
| GGGTACAGGG | 1 ± 0.02 |
| GGGTACATTT | 0.987 ± 0.016 |
| GGGTACGAG | 1.018 ± 0.01 |
| GGGTACGCAG | 1.01 ± 0.029 |
| GGGTACGCGA | 1.222 ± 0.0097 |
| GGGTACGGGG | 1 ± 0.03 |
| GGGTACTGGT | 1 ± 0.026 |
| GGGTACTTGT | 0.999 ± 0.022 |
| GGGTAGGGAT | 1 ± 0.032 |
| GGGTAGGGCG | 1.03 ± 0.14 |
| GGGTAGTCCG | 0.9937 ± 0.007 |
| GGGTAGTTTT | 0.989 ± 0.018 |
| GGGTATAACA | 1.004 ± 0.0083 |
| GGGTATAAGG | 0.989 ± 0.026 |
| GGGTATAGCC | 0.9807 ± 0.0066 |
| GGGTATCA | 0.954 ± 0.021 |
| GGGTATCACT | 0.992 ± 0.016 |
| GGGTATCGTT | 0.965 ± 0.027 |
| GGGTATGCCC | 0.9949 ± 0.0027 |
| GGGTATGCGT | 0.975 ± 0.026 |
| GGGTATGTTT | 0.981 ± 0.03 |
| GGGTATTACG | 0.975 ± 0.023 |
| GGGTATTTAG | 0.983 ± 0.033 |

| Sequence | switch fluorescence ratio |
| --- | --- |
| GGGTCAAGGG | 0.979 ± 0.019 |
| GGGTCAGGAT | 0.968 ± 0.019 |
| GGGTCAGGGA | 1.01 ± 0.065 |
| GGGTCAGTGT | 0.952 ± 0.018 |
| GGGTCATGAT | 1.01 ± 0.021 |
| GGGTCCTGGC | 0.985 ± 0.037 |
| GGGTCCTTTT | 1 ± 0.021 |
| GGGTCGAGGG | 0.986 ± 0.027 |
| GGGTCGCGCC | 1.01 ± 0.046 |
| GGGTCGCGGG | 0.9946 ± 0.0024 |
| GGGTCGGCAC | 0.968 ± 0.035 |
| GGGTCGGGTG | 1.03 ± 0.042 |
| GGGTCGTAGC | 1.01 ± 0.037 |
| GGGTCTACA | 0.9714 ± 0.0025 |
| GGGTCTCATT | 0.981 ± 0.022 |
| GGGTCTGTGG | 0.9812 ± 0.0062 |
| GGGTCTTGAC | 0.9858 ± 0.0045 |
| GGGTCTTGAT | 0.9675 ± 0.0047 |
| GGGTCTTTGA | 1.03 ± 0.041 |
| GGGTGAAGGA | 0.989 ± 0.042 |
| GGGTGACCAC | 0.986 ± 0.0044 |
| GGGTGACTTA | 0.978 ± 0.04 |
| GGGTGAGATT | 1.02 ± 0.015 |
